Data taken from patent publication US20210115421 (published 2021).

Legend:
LbCas12a-K595Y [1] = biological target: T1, LbCas12a-K595Y (Lachnospiraceae bacterium ND2006, K595Y); experiment: cleavage_in_vitro; PAM ACCC; NEB 2.1, 37C; wt TTTV benchmark 9.2
LbCas12a-K595W [2] = biological target: T2, LbCas12a-K595W (Lachnospiraceae bacterium ND2006, K595W); experiment: cleavage_in_vitro; PAM CCCC; NEB 2.1, 37C
LbCas12a-E159K [3] = biological target: T3, LbCas12a-E159K (Lachnospiraceae bacterium ND2006, E159K); experiment: cleavage_in_vitro; PAM CCCC; NEB 2.1, 37C
LbCas12a-G532H [4] = biological target: T4, LbCas12a-G532H (Lachnospiraceae bacterium ND2006, G532H); experiment: cleavage_in_vitro; PAM TTCA; NEB 2.1, 37C
LbCas12a-T152R [5] = biological target: T5, LbCas12a-T152R (Lachnospiraceae bacterium ND2006, T152R); experiment: cleavage_in_vitro; PAM GCCC; NEB 2.1, 37C
LbCas12a-D156Q [6] = biological target: T6, LbCas12a-D156Q (Lachnospiraceae bacterium ND2006, D156Q); experiment: cleavage_in_vitro; PAM GTTC; NEB 2.1, 37C
LbCas12a-K595Y [7] = biological target: T1, LbCas12a-K595Y; experiment: cleavage_in_vitro; PAM GCGC; NEB 2.1, 37C
LbCas12a-K595W [8] = biological target: T2, LbCas12a-K595W; experiment: cleavage_in_vitro; PAM ACGG; NEB 2.1, 37C
LbCas12a-D535N [9] = biological target: T7, LbCas12a-D535N (Lachnospiraceae bacterium ND2006, D535N); experiment: cleavage_in_vitro; PAM TTGC; NEB 2.1, 37C
LbCas12a-D535N [10] = biological target: T7, LbCas12a-D535N; experiment: cleavage_in_vitro; PAM TTTC; NEB 2.1, 37C
LbCas12a-K538W [11] = biological target: T8, LbCas12a-K538W (Lachnospiraceae bacterium ND2006, K538W); experiment: cleavage_in_vitro; PAM TTTC; NEB 2.1, 37C
LbCas12a-D156Q [12] = biological target: T6, LbCas12a-D156Q; experiment: cleavage_in_vitro; PAM CCTA; NEB 2.1, 37C
LbCas12a-K538W [13] = biological target: T8, LbCas12a-K538W; experiment: cleavage_in_vitro; PAM TATC; NEB 2.1, 37C
LbCas12a-D122H = LbCas12a-D122H (Lachnospiraceae bacterium ND2006, D122H); experiment: cleavage_in_vitro; PAM TCCC; NEB 2.1, 37C
LbCas12a-G532H [14] = biological target: T4, LbCas12a-G532H; experiment: cleavage_in_vitro; PAM CTTC; NEB 2.1, 37C
LbCas12a-T152R [15] = biological target: T5, LbCas12a-T152R; experiment: cleavage_in_vitro; PAM CTTC; NEB 2.1, 37C
LbCas12a-K538W [16] = biological target: T8, LbCas12a-K538W; experiment: cleavage_in_vitro; PAM TATA; NEB 2.1, 37C
LbCas12a-K121R [17] = biological target: T9, LbCas12a-K121R (Lachnospiraceae bacterium ND2006, K121R); experiment: cleavage_in_vitro; PAM TTCT; NEB 2.1, 37C
LbCas12a-E159K [18] = biological target: T3, LbCas12a-E159K; experiment: cleavage_in_vitro; PAM TTCT; NEB 2.1, 37C
LbCas12a-K595Y [19] = biological target: T1, LbCas12a-K595Y; experiment: cleavage_in_vitro; PAM TTCG; NEB 2.1, 37C
LbCas12a-K121R [20] = biological target: T9, LbCas12a-K121R; experiment: cleavage_in_vitro; PAM CCTG; NEB 2.1, 37C
LbCas12a-T152R [21] = biological target: T5, LbCas12a-T152R; experiment: cleavage_in_vitro; PAM CCTG; NEB 2.1, 37C

B1: PAMDA protospacer 1 crRNA ; protospacer 1 with ACCC PAM (ssRNA ; dsDNA)
RNA: AAUUUCUACUAAGUGUAGAUGGAAUCCCUUCUGCAGCACCUGG
DNA 1: ACCCGGAATCCCTTCTGCAGCACCTGG
DNA 2: CCAGGTGCTGCAGAAGGGATTCCGGGT
**Q.** How did the activity (LbCas12a-K595Y [1]) turn out when B1 was run?
**A.** The activity was 18.7 fold depletion.

B2: PAMDA protospacer 1 crRNA ; protospacer 1 with CCCC PAM (ssRNA ; dsDNA)
RNA: AAUUUCUACUAAGUGUAGAUGGAAUCCCUUCUGCAGCACCUGG
DNA 1: CCCCGGAATCCCTTCTGCAGCACCTGG
DNA 2: CCAGGTGCTGCAGAAGGGATTCCGGGG
**Q.** For B2, which activity (LbCas12a-K595W [2]) is on record?
**A.** The activity was 11.9 fold depletion.

**Q.** What about the activity (LbCas12a-E159K [3]) of the same binder?
**A.** The activity was 12.3 fold depletion.

B3: PAMDA protospacer 1 crRNA ; protospacer 1 with TTCA PAM (ssRNA ; dsDNA)
RNA: AAUUUCUACUAAGUGUAGAUGGAAUCCCUUCUGCAGCACCUGG
DNA 1: TTCAGGAATCCCTTCTGCAGCACCTGG
DNA 2: CCAGGTGCTGCAGAAGGGATTCCTGAA
**Q.** With B3 as the binder, how does the activity (LbCas12a-G532H [4]) read?
**A.** Its activity is 16.2 fold depletion.

B4: PAMDA protospacer 1 crRNA ; protospacer 1 with GCCC PAM (ssRNA ; dsDNA)
RNA: AAUUUCUACUAAGUGUAGAUGGAAUCCCUUCUGCAGCACCUGG
DNA 1: GCCCGGAATCCCTTCTGCAGCACCTGG
DNA 2: CCAGGTGCTGCAGAAGGGATTCCGGGC
**Q.** How did the activity (LbCas12a-T152R [5]) turn out when B4 was run?
**A.** Its activity is 13 fold depletion.

B5: PAMDA protospacer 1 crRNA ; protospacer 1 with GTTC PAM (ssRNA ; dsDNA)
RNA: AAUUUCUACUAAGUGUAGAUGGAAUCCCUUCUGCAGCACCUGG
DNA 1: GTTCGGAATCCCTTCTGCAGCACCTGG
DNA 2: CCAGGTGCTGCAGAAGGGATTCCGAAC
**Q.** B5 was tested. Which activity (LbCas12a-D156Q [6]) did it give?
**A.** The activity was 15.6 fold depletion.

B6: PAMDA protospacer 1 crRNA ; protospacer 1 with GCGC PAM (ssRNA ; dsDNA)
RNA: AAUUUCUACUAAGUGUAGAUGGAAUCCCUUCUGCAGCACCUGG
DNA 1: GCGCGGAATCCCTTCTGCAGCACCTGG
DNA 2: CCAGGTGCTGCAGAAGGGATTCCGCGC
**Q.** How did the activity (LbCas12a-K595Y [7]) turn out when B6 was run?
**A.** Its activity is 17.5 fold depletion.

B7: PAMDA protospacer 1 crRNA ; protospacer 1 with ACGG PAM (ssRNA ; dsDNA)
RNA: AAUUUCUACUAAGUGUAGAUGGAAUCCCUUCUGCAGCACCUGG
DNA 1: ACGGGGAATCCCTTCTGCAGCACCTGG
DNA 2: CCAGGTGCTGCAGAAGGGATTCCCCGT
**Q.** How did the activity (LbCas12a-K595W [8]) turn out when B7 was run?
**A.** The activity was 11.5 fold depletion.

B8: PAMDA protospacer 1 crRNA ; protospacer 1 with TTGC PAM (ssRNA ; dsDNA)
RNA: AAUUUCUACUAAGUGUAGAUGGAAUCCCUUCUGCAGCACCUGG
DNA 1: TTGCGGAATCCCTTCTGCAGCACCTGG
DNA 2: CCAGGTGCTGCAGAAGGGATTCCGCAA
**Q.** How did the activity (LbCas12a-D535N [9]) turn out when B8 was run?
**A.** The activity was 10.9 fold depletion.

B9: PAMDA protospacer 1 crRNA ; protospacer 1 with TTTC PAM (ssRNA ; dsDNA)
RNA: AAUUUCUACUAAGUGUAGAUGGAAUCCCUUCUGCAGCACCUGG
DNA 1: TTTCGGAATCCCTTCTGCAGCACCTGG
DNA 2: CCAGGTGCTGCAGAAGGGATTCCGAAA
**Q.** Which activity (LbCas12a-D535N [10]) does the source give for B9 here?
**A.** Its activity is 10.5 fold depletion.

**Q.** And the activity (LbCas12a-K538W [11])?
**A.** Its activity is 11.7 fold depletion.

B10: PAMDA protospacer 1 crRNA ; protospacer 1 with CCTA PAM (ssRNA ; dsDNA)
RNA: AAUUUCUACUAAGUGUAGAUGGAAUCCCUUCUGCAGCACCUGG
DNA 1: CCTAGGAATCCCTTCTGCAGCACCTGG
DNA 2: CCAGGTGCTGCAGAAGGGATTCCTAGG
**Q.** How did the activity (LbCas12a-D156Q [12]) turn out when B10 was run?
**A.** Its activity is 13.4 fold depletion.

B11: PAMDA protospacer 1 crRNA ; protospacer 1 with TATC PAM (ssRNA ; dsDNA)
RNA: AAUUUCUACUAAGUGUAGAUGGAAUCCCUUCUGCAGCACCUGG
DNA 1: TATCGGAATCCCTTCTGCAGCACCTGG
DNA 2: CCAGGTGCTGCAGAAGGGATTCCGATA
**Q.** How did the activity (LbCas12a-K538W [13]) turn out when B11 was run?
**A.** Its activity is 9.66 fold depletion.

B12: PAMDA protospacer 1 crRNA ; protospacer 1 with TCCC PAM (ssRNA ; dsDNA)
RNA: AAUUUCUACUAAGUGUAGAUGGAAUCCCUUCUGCAGCACCUGG
DNA 1: TCCCGGAATCCCTTCTGCAGCACCTGG
DNA 2: CCAGGTGCTGCAGAAGGGATTCCGGGA
**Q.** How did the activity (LbCas12a-D122H) turn out when B12 was run?
**A.** The activity was 18.8 fold depletion.

B13: PAMDA protospacer 1 crRNA ; protospacer 1 with CTTC PAM (ssRNA ; dsDNA)
RNA: AAUUUCUACUAAGUGUAGAUGGAAUCCCUUCUGCAGCACCUGG
DNA 1: CTTCGGAATCCCTTCTGCAGCACCTGG
DNA 2: CCAGGTGCTGCAGAAGGGATTCCGAAG
**Q.** Which activity (LbCas12a-G532H [14]) does the source give for B13 here?
**A.** Its activity is 15.1 fold depletion.

**Q.** And the activity (LbCas12a-T152R [15])?
**A.** Its activity is 16.1 fold depletion.

B14: PAMDA protospacer 1 crRNA ; protospacer 1 with TATA PAM (ssRNA ; dsDNA)
RNA: AAUUUCUACUAAGUGUAGAUGGAAUCCCUUCUGCAGCACCUGG
DNA 1: TATAGGAATCCCTTCTGCAGCACCTGG
DNA 2: CCAGGTGCTGCAGAAGGGATTCCTATA
**Q.** B14 was tested. Which activity (LbCas12a-K538W [16]) did it give?
**A.** The activity was 10.4 fold depletion.

B15: PAMDA protospacer 1 crRNA ; protospacer 1 with TTCT PAM (ssRNA ; dsDNA)
RNA: AAUUUCUACUAAGUGUAGAUGGAAUCCCUUCUGCAGCACCUGG
DNA 1: TTCTGGAATCCCTTCTGCAGCACCTGG
DNA 2: CCAGGTGCTGCAGAAGGGATTCCAGAA
**Q.** How did the activity (LbCas12a-K121R [17]) turn out when B15 was run?
**A.** The activity was 14.4 fold depletion.

**Q.** What about the activity (LbCas12a-E159K [18]) of the same binder?
**A.** The activity was 12.7 fold depletion.

B16: PAMDA protospacer 1 crRNA ; protospacer 1 with TTCG PAM (ssRNA ; dsDNA)
RNA: AAUUUCUACUAAGUGUAGAUGGAAUCCCUUCUGCAGCACCUGG
DNA 1: TTCGGGAATCCCTTCTGCAGCACCTGG
DNA 2: CCAGGTGCTGCAGAAGGGATTCCCGAA
**Q.** How did the activity (LbCas12a-K595Y [19]) turn out when B16 was run?
**A.** Its activity is 17.8 fold depletion.

B17: PAMDA protospacer 1 crRNA ; protospacer 1 with CCTG PAM (ssRNA ; dsDNA)
RNA: AAUUUCUACUAAGUGUAGAUGGAAUCCCUUCUGCAGCACCUGG
DNA 1: CCTGGGAATCCCTTCTGCAGCACCTGG
DNA 2: CCAGGTGCTGCAGAAGGGATTCCCAGG
**Q.** With B17 as the binder, how does the activity (LbCas12a-K121R [20]) read?
**A.** Its activity is 13 fold depletion.

**Q.** What about the activity (LbCas12a-T152R [21]) of the same binder?
**A.** Its activity is 14.8 fold depletion.
